Laboratory results published in the supplement of paper PMC10567573.

B1: USP39 (parent)
chain: FVEKNPTIVNFPITNVDLREYLSE

Variants of: B1
Assay: protein stability index of a GFP-peptide fusion (GPS, HEK-293T) (PSI 1-6); higher = more stable
Conditions: c terminus: a fixed tail appended
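Also: lentivirally expressed fusions sorted by FACS into six bins by GFP to DsRed ratio, PSI derived from sequencing read proportions per bin multiplied by bin number.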

Protein stability index: each site, then its substitutions
E20: G 1.13; V 2.28; K 2.56; F 1.71; Y 2.88; H 2.01; P 2.02; R 1.41; N 1.55; C 1.68; L 1.39; T 1.46; Q 2.08; A 1.46; D 1.81; M 2.41; I 2.01; W 1.77; S 2.5
F11: Q 2.09; K 2.05; S 1.77; I 2.42; C 2.01; N 2.22; V 1.82; R 2.02; M 1.78; A 1.85; G 2.13; E 3.01; H 2; L 1.88; Y 3.36; D 2.82; T 2.02; P 2; W 1.23
L22: Q 2.44; N 1.47; W 1.74; I 1.93; H 1.5; C 1.12; S 2.49; F 2.1; Y 1.9; P 1.84; G 2.12; M 2.07; R 1.66; D 1.64; K 2.09; V 1.83; T 2.03; E 1.75; A 2.47
L18: Y 1.92; T 1.54; K 1.3; N 1.78; R 1.71; C 2.64; H 1.42; S 1.43; Q 2.64; I 2.53; A 1.69; W 2.33; V 2.65; G 2.1; E 2.05; D 2.21; M 1.64; F 2.06; P 1.24
Y21: W 1.47; L 2.27; R 1.57; M 1.49; N 1.9; S 2.27; P 1.62; Q 1.87; C 1.6; A 2.35; H 2.84; D 1.71; E 2.21; I 2.04; G 2.44; T 1.86; F 2.04; K 1.21; V 1.52
R19: V 1.83; H 1.25; F 2.81; Y 2.1; A 2.92; N 1.99; L 2.06; E 2.09; D 1.44; S 1.31; Q 2.35; W 2.13; T 1.63; C 2.05; M 1.65; P 2.08; G 1.64; K 1.78; I 2.49
N10: A 2.02; E 1.99; L 3.29; Q 2.3; R 1.8; W 2.08; K 2.48; D 2.14; G 2.93; V 2.29; I 3.79; H 1.75; P 2.42; T 1.77; F 1.57; S 1.76
S23: M 2; P 2.13; R 2.02; G 1.34; V 1.77; N 1.65; E 1.83; C 2.41; T 1.06; H 2.76; A 1.57; D 1.84; Q 1.78; F 2.12; K 2.59; I 3.78; L 1.11; Y 4.51
N15: P 1.45; S 1.18; A 1.52; L 2.05; Y 2.3; T 1.43; G 1.37; C 1.77; R 2.21; I 2.26; V 2.27; D 1.56; M 2.12; H 1.44; Q 2.13; K 2.13
I8: F 2.25; R 2.56; P 2.76; N 2.1; V 1.89; E 2.67; S 2.89; Q 2.54; H 2.12; T 3.34; A 1.82; M 1.25; C 2.02; D 2.77; L 2.81; Y 1.55; K 2.04; W 2.96; G 1.91
V9: G 2.03; C 1.5; N 1.98; I 2.23; L 1.63; M 1.63; R 2.16; H 1.8; A 2.66; Y 3.09; D 2.27; S 1.8; F 1.73; P 1.89; Q 2.03; E 2.91; K 2.38; T 2.36
V16: M 2.37; Q 1.99; S 1.82; C 1.41; D 1.89; I 1.6; N 1.49; H 1.49; T 2.94; G 1.89; K 1.74; E 2.04; L 2.05; A 2.02; R 2.78; P 2.29; Y 1.62; W 1.52; F 1.8
T14: R 2.78; A 1.74; K 1.73; I 3.46; E 1.43; S 2.08; Q 1.81; M 1.57; F 1.98; G 1.82; P 1.54; D 2.65; L 1.86; N 2.67; V 2.08; H 2.09; Y 1.97; C 1.72; W 3.7
I13: P 1.91; E 2.4; F 2.08; T 1.36; G 1.71; A 2.23; Y 1.73; M 2.6; S 2.59; C 1.77; D 2.17; L 1.67; K 2.25; R 1.98; N 2.42; H 1.81; V 2.03; Q 2.22
T7: R 1.98; K 1.74; F 1.8; N 2.39; Y 3.42; E 2; P 1.55; H 1.69; A 1.8; S 1.5; L 2.02; D 2.15; Q 1.81
D17: K 1.11; H 2.25; W 1.4; A 2.46; F 2.63; G 2.02; I 3.11; V 2.64; L 1.28; P 1.34; N 1.55; Q 1.92; C 2.08; E 1.95; R 2.25; S 2.28; M 1.62; Y 1.84; T 1.35
E24: H 2.5; R 1.53; L 2.27; F 2.02; G 2.14; K 1.84; Q 2.04; N 2.24; S 1.88; I 1.64; C 2.11; D 1.37; A 2.19; M 1.59; P 2.1; T 1.78
P6: H 1.92; N 2.1; S 3; K 2.76; T 2.21; V 2.38; L 1.19; M 2.47; G 1.95; I 2.61; Y 2.82; Q 1.98; R 2.13
P12: K 1.56; E 1.66; G 2.21; C 1.48; M 3.23; R 2.74; V 2.28; H 1.47; A 2.06; F 3.66; S 1.34; I 2.38; N 2.3; Q 1.74; W 2.96; T 2.28
